The target of assay [1] is ANGPTL8 in human serum (human (endogenous in serum)) (UniProt Q6UXH0). Put plainly: affinity purification with mass spectrometry; immunoprecipitation with the anti-ANGPTL3/8 antibody from 1 ml pooled human serum (three pools); on-bead Trypsin/Lys-C digest; LC-MRM with 0.25 pmole stable isotope-labeled peptides, two peptides a protein.
The target in assay [2] is T1, ANGPTL3/8 complex present in human serum (human (endogenous in serum)) (UniProt Q6UXH0).
T1 sequence (Q9Y5C1 17-460, looked up): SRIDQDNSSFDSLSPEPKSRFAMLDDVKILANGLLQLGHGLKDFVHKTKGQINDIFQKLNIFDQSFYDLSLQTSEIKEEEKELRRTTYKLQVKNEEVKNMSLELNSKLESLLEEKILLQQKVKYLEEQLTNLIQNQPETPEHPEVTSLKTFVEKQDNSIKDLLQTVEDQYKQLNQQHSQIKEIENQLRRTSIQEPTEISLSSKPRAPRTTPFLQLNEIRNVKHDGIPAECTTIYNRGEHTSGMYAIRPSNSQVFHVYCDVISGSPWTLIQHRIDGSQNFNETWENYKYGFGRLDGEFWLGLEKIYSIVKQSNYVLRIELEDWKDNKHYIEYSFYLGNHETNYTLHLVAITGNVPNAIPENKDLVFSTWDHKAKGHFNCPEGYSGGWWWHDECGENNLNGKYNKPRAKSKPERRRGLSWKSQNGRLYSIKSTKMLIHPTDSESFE
T1 sequence (Q6UXH0 22-198, looked up): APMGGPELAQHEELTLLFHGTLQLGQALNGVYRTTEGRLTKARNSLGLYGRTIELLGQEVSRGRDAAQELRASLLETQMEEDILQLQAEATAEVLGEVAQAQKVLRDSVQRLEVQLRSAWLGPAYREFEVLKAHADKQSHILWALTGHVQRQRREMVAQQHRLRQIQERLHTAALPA
The description is as above.

Assay [3] concerns the target T2, ANGPTL3/8 complex containing a FLAG-tag sequence at the C terminus of ANGPTL3 (recombinant, human) (human, UniProt Q9Y5C1 17-460; Q6UXH0 22-198).
T2 sequence (looked up) 1: T1 sequence (Q9Y5C1 17-460, looked up)
T2 sequence (looked up) 2: T1 sequence (Q6UXH0 22-198, looked up)
Put plainly: cell-based or functional assay.

In assay [4] the target is T2, ANGPTL3/8 complex containing a FLAG-tag …. Put plainly: BLI; Octet RED96e; FLAG-tagged ANGPTL3/8 immobilised by anti-FLAG antibody on streptavidin biosensors; 6.25-100 nM HSA-ApoA5 in solution; background reference subtraction; global fit, 1:1 binding model. The settings on record: both partners purified.

The values below come from publication PMC8079461, “ApoA5 lowers triglyceride levels via suppression of ANGPTL3/8-mediated LPL inhibition” (Journal of Lipid Research, 2021).

Several values for one entry are separate records, joined by “and”; a condition that tells them apart may be missing. Identical values can stand only once.

Consider “ANGPTL3 in human serum (natural protein)”, for which the stoichiometry N in assay [1] was 2.8 and 2.7.

B1: HSA-ApoA5 (HIS tag-mature HSA-PreScission cleavage site-mature human ApoA5, residues 24-366) (natural protein, UniProt Q6Q788 24-366, looked up)
chain: RKGFWDYFSQTSGDKGRVEQIHQQKMAREPATLKDSLEQDLNNMNKFLEKLRPLSGSEAPRLPQDPVGMRRQLQEELEEVKARLQPYMAEAHELVGWNLEGLRQQLKPYTMDLMEQVALRVQELQEQLRVVGEDTKAQLLGGVDEAWALLQGLQSRVVHHTGRFKELFHPYAESLVSGIGRHVQELHRSVAPHAPASPARLSRCVQVLSRKLTLKAKALHARIQQNLDQLREELSRAFAGTGTEEGAGPDPQMLSEEVRQRLQAFRQDTYLQIAAFTRAIDQETEEVQQQLAPPPPGHSAFAPEFQQTDSGKVLSKLQARLDDLWEDITHSLHDQGHSHLGDP
notes: mature human ApoA5, residues 24-366 of NP_443200.2; Secreted by a mouse IgG kappa signal peptide; source: HEK293, transient transfection, purified from culture media (Ni-NTA, Superdex 200); not shown: His tag, N-terminal, kept; mature human serum albumin (HSA), N-terminal, kept
With B1, in assay [2], the protein ratio ApoA5/ANGPTL8 in the immunoprecipitate (ApoA5 per ANGPTL3/8 complex) was 0.5 and 0.53. Moreover, the “EC50 of HSA-ApoA5 to block the inhibition of LPL activity by 0.3 nM ANGPTL3/8 (human LPL-stable expression cells, EnzChek substrate)” value in assay [3] was found to be 21 nM. Also, in assay [4], the Kd was found to be 0.52 nM, the koff came to 0.000135 s⁻¹ and the kon turned out to be 260000 M⁻¹ s⁻¹.
